Measured values from FireProtDB (doi:10.1093/protein/10.5.575).

B1: Cytochrome b5, P00171 (parent)
chain: MAEESSKAVKYYTLEEIQKHNNSKSTWLILHYKVYDLTKFLEEHPGGEEVLREQAGGDATENFEDVGHSTDARELSKTFIIGELHPDDRSKITKPSESIITTIDSNPSWWTNWLIPAISALFVALIYHLYTSEN

Variants of: B1
Details: Bos taurus, pH 7, Absorbance, phosphate 0.1 M, reversible: yes, structure 1CYO, whole UniProt chain shown

Row | Variant | ddG of mutation (higher = less stable) (30 °C, Urea) [kcal/mol] | denaturant midpoint (higher = more stable) (30 °C, Urea) [M] | ddG of mutation (higher = less stable) (66.2 °C, Thermal) [kcal/mol] | unfolding enthalpy (van 't Hoff) (66.2 °C, Thermal) [kcal/mol] | Tm (Thermal) [°C] | change of melting temperature, mutant - wild type (higher = more stable) (Thermal) [°C] | unfolding enthalpy (van 't Hoff) (Thermal) [kcal/mol]
1 | MAEESSKAVKYYTLEEIQKHNNSKSTWLILHYKVYDLTKYLEEHPGGEEVLREQAGGDATENFEDVGHSTDARELSKTFIIGELHPDDRSKITKPSESIITTIDSNPSWWTNWLIPAISALFVALIYHLYTSEN [F40Y] | -1.03 | 8.3 | -0.79 | 86.4 | 69.6 | 3.4 | 86.4
2 | MAEESSKAVKYYTLEEIQKHNNSKSTWLILHYKVYDLTKLLEEHPGGEEVLREQAGGDATENFEDVGHSTDARELSKTFIIGELHPDDRSKITKPSESIITTIDSNPSWWTNWLIPAISALFVALIYHLYTSEN [F40L] | 1.87 | 4.9 | 1.87 | – | 59.1 | -7.1 | 104
3 | MAEESSKAVKYYTLEEIQKHNNSKSTWLILHYKVYDLTKHLEEHPGGEEVLREQAGGDATENFEDVGHSTDARELSKTFIIGELHPDDRSKITKPSESIITTIDSNPSWWTNWLIPAISALFVALIYHLYTSEN [F40H] | – | – | 2.82 | – | 54.9 | -11.3 | 94.7
